Results as given in patent US20180111972A1.

Legend:
[1] = target: human PDGFR on BJ-5ta human fibroblasts (human) (UniProt P09619); test: flow cytometry on cells, soluble ligand titrated, anti-FLAG-PE
[2] = target: mouse PDGFR on NIH/3T3 mouse fibroblasts (mouse) (UniProt P05622); test: as above
[3] = target: human PDGFR on BJ-5ta human fibroblasts (human) (UniProt P09619); test: flow cytometry titration of the soluble FLAG-tagged protein on BJ-5ta cells, anti-FLAG detection
[4] = target: mouse PDGFR on NIH/3T3 mouse fibroblasts (mouse) (UniProt P05622); test: flow cytometry on NIH/3T3 cells, soluble ligand titrated 5 h at 4 C, anti-FLAG-PE
[5] = target: human PDGFR on BJ-5ta human fibroblasts (human) (UniProt P09619); test: flow cytometry on BJ-5ta cells, soluble ligand titrated 5 h at 4 C, anti-FLAG-PE

Chain of scPDGF, single-chain version of wild-type PDGF-BB, soluble, FLAG and hexahistidine tags (ligand) (chain, part): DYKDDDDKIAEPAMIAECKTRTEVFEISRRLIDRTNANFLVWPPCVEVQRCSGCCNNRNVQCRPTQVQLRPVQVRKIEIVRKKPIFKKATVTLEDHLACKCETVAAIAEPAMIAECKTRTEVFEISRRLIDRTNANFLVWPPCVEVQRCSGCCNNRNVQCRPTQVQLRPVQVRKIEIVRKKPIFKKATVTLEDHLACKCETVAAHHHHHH

Kd [1]: 1.5 pM
Kd [2]: 2.5 pM
EC50 (read off the curve) [3]: 1 pM
Kd [4]: 2.7 pM
Kd [5]: 1.5 pM
Substance: scPDGF, single-chain version of wild-type PDGF-BB, soluble, FLAG and hexahistidine tags (ligand)
